How the values were obtained:
[1] = biological target: T1, human histidine-rich glycoprotein (HRG), purified from human plasma (human, UniProt P04196 19-525); test: sandwich ELISA, HRG captured by solid phase 9-1F
T1 construct: also called human purified HRG; human purified HRG protein
T1 sequence: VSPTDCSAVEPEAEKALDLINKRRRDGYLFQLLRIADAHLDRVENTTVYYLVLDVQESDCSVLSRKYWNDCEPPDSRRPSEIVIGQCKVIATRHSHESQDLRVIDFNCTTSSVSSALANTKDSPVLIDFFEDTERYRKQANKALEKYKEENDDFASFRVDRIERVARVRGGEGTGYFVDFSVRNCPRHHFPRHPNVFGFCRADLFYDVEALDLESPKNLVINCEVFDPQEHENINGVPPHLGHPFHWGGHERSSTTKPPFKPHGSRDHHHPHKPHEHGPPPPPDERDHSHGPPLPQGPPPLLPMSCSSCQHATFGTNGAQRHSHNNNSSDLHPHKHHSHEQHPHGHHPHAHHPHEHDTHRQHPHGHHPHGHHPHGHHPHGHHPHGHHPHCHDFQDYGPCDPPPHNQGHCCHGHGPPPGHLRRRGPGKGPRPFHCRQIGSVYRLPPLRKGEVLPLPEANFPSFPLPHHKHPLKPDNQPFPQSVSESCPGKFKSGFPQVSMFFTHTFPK
Method: (§1) The capture antibody solution was dispensed at 25 μL per well into 384-well Maxisorp plates (NUNC), and the plates were incubated at room temperature for 3 hours. The plates were washed twice with 120 μL of washing solution per well (0.05% Tween 20-containing PBS). A blocking solution (1% BSA-containing PBS) was dispensed at 30 μL per well, and the plates were incubated at room temperature for 3 hours. The blocking solution was removed followed by dispensing the standard substance for evaluation at 20 μL per well (n=2), and the plates were incubated at room temperature for 3 hours. After washing the plates four times with the washing solution as described above, the solution of each detector antibody was dispensed at 10 μL per well, followed by dispensing a horseradish peroxidase-streptavidin solution (0.05 μg/mL) at 10 μL per well, and the plates were incubated at room temperature for 1 hour. After washing the plates four times with the washing solution as described above, a chromogenic substrate solution (TMB (3,3′,5,5′-tetramethylbenzidine)) was dispensed at 20 μL per well followed by incubating the plates at room temperature for 10 minutes, then a reaction stop solution 0.5 M H₂SO₄ was added at 20 μL/well, and the absorbance at 450 nm was measured.
(§2) The results regarding the evaluation of combinations chosen from 21 types of anti-HRG monoclonal antibodies are shown in Table 1. In Table 1, the absorbance at a wavelength of 450 nm of each combination was determined as follows: less than 1.0 OD: −, 1.0 OD or more and less than 2.0 OD: +, 2.0 OD or more and less than 3.0 OD: ++, and 3.0 OD or more: +++. The combinations of antibodies which could construct a sandwich ELISA system having enough level of absorbance change were 86 sets evaluated as ++ or +++ in Table 1.

[2] = biological target: T1, human histidine-rich glycoprotein …; test: sandwich ELISA, HRG captured by solid phase 14-6F
Method: as §1, §2

[3] = biological target: T1, human histidine-rich glycoprotein …; test: sandwich ELISA, HRG captured by solid phase 58-5C
Method: as §1, §2

[4] = biological target: T1, human histidine-rich glycoprotein …; test: sandwich ELISA, HRG captured by solid phase 75-2D
Method: as §1, §2

[5] = biological target: T1, human histidine-rich glycoprotein …; test: sandwich ELISA, HRG captured by solid phase 40-10G
Method: as §1, §2

[6] = biological target: T1, human histidine-rich glycoprotein …; test: sandwich ELISA, HRG captured by solid phase 42-10D
Method: as §1, §2

absorbance at 450 nm [1]: < 1 OD
absorbance at 450 nm (OD450) [2]: 1 to 2 od
absorbance at 450 nm (OD450) [3]: 1 to 2 od
absorbance at 450 nm (OD450) [4]: 2 to 3 od
absorbance at 450 nm (OD450) [5]: 1 to 2 od
absorbance at 450 nm [6]: < 1 OD
B1: anti-HRG monoclonal antibody 69-1A (antibody, V domains shown)
VH: EVKLEESGGGLVQPGGSMKLSCAASGFTFSDAWMDWVRQSPEKGLEWVAEIRSKANNHGTYYAESVKGRFTISRDDSKSSVYLRMNSLSAEDTGIYYCTRPFAYWGQGTLVTVSA
VL: DVVVTQTPLSLPVSLGDQASISCRSSQSLVHIDGNTYFHWYVQKPGQSPKLLIYKVSNRFSGVPDRFSGSGSGTDFTLKISRVEAEDLGVYFCSQSTHVPLTFGAGTKLELK
notes: Mouse hybridoma monoclonal; also called clone No. 69-1A

Source: US20250258178A1 (SHIONOGI, published 2025)
